# No end group written: not given here.
# T1: peptide p10 (ppyawe hexapeptide, D-amino acids) (synthetic)
# T1 sequence: PPYAWE
# T2: MblZF (Muscleblind zinc fingers) (UniProt O16011)
# T2 sequence: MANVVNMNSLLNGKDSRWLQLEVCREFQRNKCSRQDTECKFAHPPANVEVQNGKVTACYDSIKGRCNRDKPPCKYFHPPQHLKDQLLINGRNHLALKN
# B1: MblZF (Mbl zinc finger) protein, amino acids 1-98 of Drosophila Muscleblind, fused to 6 Histidines and a TEV protease cleavage site (other, UniProt O16011 1-98, looked up)
# chain: MANVVNMNSLLNGKDSRWLQLEVCREFQRNKCSRQDTECKFAHPPANVEVQNGKVTACYDSIKGRCNRDKPPCKYFHPPQHLKDQLLINGRNHLALKN
# notes: range 1-98; The region is shared by all Mbl isoforms except MblD; also called zinc fingers of Mbl; not shown: 6 Histidines and TEV protease cleavage site from a pET-15b-derived vector
# B2: MblZF: portion of Drosophila Mbl corresponding to the zinc fingers (amino acids 1-98), expressed in E. coli (protein)
# chain: MANVVNMNSLLNGKDSRWLQLEVCREFQRNKCSRQDTECKFAHPPANVEVQNGKVTACYDSIKGRCNRDKPPCKYFHPPQHLKDQLLINGRNHLALKN
# modifications: left off: small tags and cut ends
# notes: portion of Drosophila Mbl corresponding to the zinc fingers (amino acids 1-98), expressed in E. coli
# Key:
# [1] = tested on: MBNL1 binding to the CUG repeats; conditions: in vitro; cited from earlier work
# [2] = tested on: T1, peptide p10 (ppyawe hexapeptide, D-amino acids) (synthetic); conditions: one G replaced by 2-aminopurine; 2-AP fluorescence increase (hairpin opening) at 100 uM; none at RNA:peptide up to 1:5
# [3] = tested on: GMR-Gal4 UAS-CTG(480) flies; assay: Endogenous expression of p10-derived peptides (Gal4/UAS), rough eye phenotype; format: in vivo, Drosophila; conditions: for eye phenotype on co-expression with CTG(480): 25° C.; for phenotype of expression of peptide by itself: 25° C. and 29° C., without CTG(480); for offspring of crossing with GMR-Gal4 UAS-CTG(480)/CyO: 29° C.; for transgenic lines assayed that modified the phenotype of GMR-Gal4 UAS-CTG(480) flies: in vivo
# From the text: Thus, three different transgenes were designed, with SEQ ID NO: 17-19 (p17-p19), which encoded different peptides, all based on sequence SEQ ID NO: 10 corresponding to p10 (FIG. 9), taking into consideration the codon usage bias in Drosophila (i.e. favouring the use of G, and in particular C, in the synonymous sites; Powell & Moriyama, 1997) and adding an initial Methionine, as well as three spacer Glycines, to sequence SEQ ID NO: 10. Moreover, upstream from the […] initiation codon, 21 nucleotides of the 5′UTR end of the act5C gene of Drosophila which included the Kozak sequence were added, in order to enhance the expression of the transgenes.
# p17 contained the direct sequence of the peptide of SEQ ID NO: 10. As discussed above, the peptides in the hexapeptide chemical library are composed of D-amino acids. The D-forms (dextrogyre) of amino acids are stereoisomers of the L-forms (levogyres) and only L-amino acids are synthesised in the cells and incorporated into proteins. Consequently, if the arrangement of the lateral chains of p10 is important for the function thereof, the latter would be lost when p17 is synthesised by Drosophila from L-aa. For this reason, it was decided to generate construct p18, wherein the peptide sequence of SEQ ID NO: 10 was inverted, leading to a retro-inverse peptide (Chorev & Goodman, 1995; P. M. Fischer, 2003). At the time when these transgenes were generated, the smallest constructs described in the literature encoded peptides with more than 20 amino acids, which is more than twice the size of peptides p17 and p18 (which have only ten amino acids). For this reason, construct p19 was generated, which combined the constructs of peptides p17 and p18, leading to a peptide with 19 amino acids. The three constructs were microinjected in the precursors of the germinal line of Drosophila embryos, leading to 10 lines of transgenic flies for each transgene.
# (§1) The transgenic flies obtained were crossed with the GMR-Gal4 UAS-CTG(480)/CyO and Mhc-Gal4 UAS-CTG(480)/TM6b recombinant fly lines generated during this invention, which directed the expression of the CTG repeats in the eye and the muscle, respectively. As in the case of the sev-Gal4 UAS-CTG(480)/+ flies, the adult GMR-Gal4 UAS-CTG(480)/UAS-GFP flies presented a strong rough eye phenotype. […] However, the opposite phenomenon occurred at 25° C. and at 29° C. […] Given that changes in temperature affect the expression of the CTG(480) transgenes and peptides p17-p19 in a different manner, since the latter are inserted in different regions of the genome, there may be a relation between the quantity of peptide and of repeats that must be reached, whereafter p10 becomes toxic.
# [4] = tested on: Mhc-Gal4 UAS-CTG(480) flies; assay: Endogenous expression of p10-derived peptides in the IFMs; format: in vivo, Drosophila; conditions: Mhc-Gal4 line at 25° C., recently ecloded adults
# Procedure: as §1
# This confirms the effect of p10 on CTG(480). Once again, only those lines that carried the p18 and p19 transgenes modified the phenotype.
# [5] = target: T2, MblZF (Muscleblind zinc fingers); assay: FP; conditions: theoretical IC50 from binding curve; 6 nM RNA; competed by unlabelled (CUG)23
# [6] = target: the molecule itself; assay: molecular exclusion chromatography; single elution peak at 13.4 KDa, equivalent to the monomer
# Procedure: In order to verify that the purified protein was in its native conformation following the purification, its circular dichroism (CD) spectrum was analysed. Circular dichroism is an electronic absorption spectroscopy technique based on the differential absorption by the molecule of right- and left-circularly polarised light beams. Since different proteins have a different circular dichroism spectrum, this technique makes it possible to identify the conformation of different molecules by comparison with a theoretical spectrum (FIG. 18B). The circular dichroism spectrum obtained for MblZF in phosphate buffer is similar to that described for the zinc fingers of MBNL1, with a pronounced peak at 203 nm, which denoted a lack of structure, and a weak peak at 220 nm, which indicates an alpha helix (FIG. 18A). In the case of MblZF, this pattern was conserved, although the values were slightly shifted to the right (FIG. 18C). Finally, in order to determine whether MblZF was found as a monomer in solution or forming complexes, we performed molecular exclusion chromatography (FIG. 18D). Molecular exclusion chromatography is a column chromatography method whereby the molecules separate as a function of their molecular weight. The exclusion volume obtained for MblZF corresponded to a molecular weight of 13.4 KDa, equivalent to the size of the protein in monomer form.
# CUG60 RNA = assay: Circular dichroism of CUG60 RNA; format: binding; conditions: RNA 1 μM; p10 0.1-20 μM; MblZF 1 and 1.5 μM; ppyawa 0.5 and 1 μM; payawe 1 μM
# Procedure: However, this effect was not reverted when the RNA was incubated jointly with MblZF and p10, regardless of the order of addition (C).
# In order to study possible changes in the secondary structure of RNA induced by p10, in the first place we performed a circular dichroism (CD) experiment, using an RNA with unlabelled CUG repeats (CUG60). The circular dichroism of nucleic acids is caused by the stacking of the bases that make up the sequence thereof. Consequently, when a molecule binds to RNA, affecting the structure thereof, a change is detected in its CD spectrum. […] When we incubated the RNA with increasing concentrations of the peptide of SEQ ID NO: 10 (0.1 μM, 0.5 μM, 1 μM, 10 μM and 20 μM), a similar effect was observed (FIG. 27B). During the readings, the RNA was kept in the cuvette inside the dichrograph at 10° C. Throughout the 3 hours of each experiment, it was possible for the RNA to have been degraded; this would explain the decrease in the intensity of the signal observed. In order to rule out this possibility, the CD spectrum of CUG60 RNA was measured at times 0 and 3 h, having kept the CUG60 RNA at 10° C. at all times.
# FAM-(CUG)23 RNA = assay: Fluorescence polarisation assay; format: binding
# From the text: Amongst the different techniques for the in vitro study of interactions between proteins and nucleic acids, fluorescence polarisation (FP) assays are worth highlighting for their rapidity and sensitivity. This technique is based on the changes in rotational movement of fluorescent molecules in suspension. Thus, when a polarised light beam excites a fluorophore conjugated to a small molecule, the latter undergoes rotational diffusion faster than the time needed for the emission of light, which results in a random arrangement of the molecule at the time of fluorescence emission (depolarisation). However, rotation of the molecule becomes slower when the viscosity of the medium or the molecular volume change, increasing the polarisation of the light emitted. Thus, by measuring the polarisation changes in a molecule, it is possible to detect the binding between the latter and another molecule added to the medium (FIG. 19). In the present invention, these molecules were p10, MblZF and 23 CUG repeats conjugated to the carboxyfluorescein fluorophore (FAM-(CUG)23).
# In order to prepare the FP experiment, in the first place two different concentrations of the FAM-(CUG)23 RNA (6 nM and 60 nM) were assayed. […] The interaction observed between MblZF and FAM-(CUG)23 was proportional to the quantity of protein (FIG. 20B). […]
# 2-AP-(CUG)23 RNA = assay: 2-aminopurine fluorescence assay (hairpin opening); format: biochemical; conditions: low concentrations, RNA:protein ≦1:5
# Procedure: Measurements of the fluorescence emitted (Y-axis), measured as relative fluorescence units (RFU), by 2-aminopurine in a (CUG)23 RNA (1 μM) in the presence of MblZF (0.1 μM, 1 μM, 2 μM and 5 μM) (A) or p10 (0.1 μM, 1 μM, 2 μM, 5 μM and 100 μM) (B), relative to the fluorescence emitted by the free RNA. p10 caused a 2.9-increase in the fluorescence of 2-AP at 100 μM, which indicates a change towards single-stranded. This effect was not observed when incubating the RNA with DMSO, or with the alanine scanning peptides with sequences: ppyawa and payawe (C).
# In order to confirm whether said changes cause a loss of the hairpin loop structure, an experiment was performed using an RNA composed of 23 CUG repeats, wherein a guanine had been substituted with its analogue 2-aminopurine (2-AP-(CUG)23). When 2-AP is in a single-stranded environment, it emits fluorescence at 375 nm. […] However, upon increasing the concentration of p10 to 100 μM (RNA:peptide 1:100), the 2AP-(CUG)23 RNA underwent a conformational change, from double-stranded to single-stranded, with a 2.9-fold increase in the fluorescence emission of the molecule (FIG. 28B). In order to confirm the specificity of this effect, the same experiment was performed, incubating the alanine scanning peptides (payawe and ppyawa) with the 2-AP-(CUG)23 RNA at the same concentration as p10 (100 μM).
# As may be observed in FIG. 29, in this example we use the 2-aminopurine assay in order to assay 4 peptides (p11, p5, p12 and p15) in addition to p10, obtained from the deconvolution of the combinatorial peptide library explained in this invention. […] The concentration used in all cases is 100 μM.
molecule,measurement,setting,value
NC[C@@H]1O[C@H](O[C@H]2[C@@H](O)[C@H](O[C@@H]3[C@@H](O)[C@H](N)C[C@H](N)[C@H]3O[C@H]3O[C@H](CN)[C@@H](O)[C@H](O)[C@H]3N)O[C@@H]2CO)[C@H](N)[C@@H](O)[C@@H]1O [neomycin B],binding of MBNL1 to the CUG repeats,[1],inhibited the binding of MBNL1
CUG [2-AP-(CUG)23],activity,[2],2.9 fold
CN1C(=Cc2cc[n+](C)c3ccccc23)Sc2ccccc21 [thiazole orange],binding of MBNL1 to the CUG repeats,[1],inhibited the binding of MBNL1
p18: endogenously expressed ten amino acid peptide with the sequence of p10 inverted (retro-inverse) (MGGGEWAYPP; not fully specified),rough eye phenotype on co-expression with CTG(480),[3]; 19° C. and 21° C.,visibly less rough
same,eye phenotype on co-expression with CTG(480),[3],enhanced the toxicity of the CTG repeats
same,phenotype of expression of peptide by itself,[3],did not cause any phenotype
same,offspring of crossing with GMR-Gal4 UAS-CTG(480)/CyO,[3],did not produce offspring without the CyO balancer
same,transgenic lines assayed that modified the phenotype of GMR-Gal4 UAS-CTG(480) flies,[3],all the lines
same,histological defects of the IFMs on co-expression with CTG(480),[4],suppressed the histological defects of the IFMs
CUG [FAM-(CUG)23],IC50,[5],900 nM
p19: endogenously expressed peptide with 19 amino acids combining the constructs of p17 and p18 (MGGGPPYAWEGGGEWAYPP),rough eye phenotype on co-expression with CTG(480),[3]; 19° C. and 21° C.,visibly less rough
same,length of the eye in the dorso-ventral axis vs control flies,"[3]; 19° C. and 21° C., p-value <0.05",significant increase in the size of the eye
same,eye phenotype on co-expression with CTG(480),[3],enhanced the toxicity of the CTG repeats
same,phenotype of expression of peptide by itself,[3],did not cause any phenotype
same,offspring of crossing with GMR-Gal4 UAS-CTG(480)/CyO,[3],did not produce offspring without the CyO balancer
same,transgenic lines assayed that modified the phenotype of GMR-Gal4 UAS-CTG(480) flies,[3],one of the three lines
same,histological defects of the IFMs on co-expression with CTG(480),[4],suppressed the histological defects of the IFMs
B1,binding result,[6],no binding
B2,change of circular dichroism spectrum of CUG60,CUG60 RNA,reducing the emission peak of RNA
same,ΔmP (increase in polarisation values),FAM-(CUG)23 RNA; FAM-(CUG)23,99.5
same,IC50,"FAM-(CUG)23 RNA; FAM-(CUG)23 6 nM, read-out: theoretical IC50 of binding curve",900 nM
same,changes in the fluorescence of 2-AP,2-AP-(CUG)23 RNA,neither of them caused changes

# Reference: patent publication US20130143825A1, “COMPOUNDS FOR USE IN THE TREATMENT OF DISEASES BASED ON THE EXPRESSION OF TOXIC TRANSCRIPTS” (UNIVERSITAT DE VALENCIA, priority 2010, published 2013)
